The results in this text go back to patent US20210284724A1 (I MAB BIOPHARMA US, published 2021).

The target of experiment [1] is T1, human CXCL13 (human, UniProt O43927 23-109).
T1 construct: also called huCXCL13; rhCXCL13
T1 sequence (looked up): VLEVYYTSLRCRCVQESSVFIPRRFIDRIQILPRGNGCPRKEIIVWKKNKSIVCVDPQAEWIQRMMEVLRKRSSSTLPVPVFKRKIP
Description: cell-based blocking ELISA, CXCL13 to CHO-K1-CXCR5. Here is the method:
Splenocytes were electro-fused with mouse myeloma cell line SP2/0 cells and plated into 96-well culture plate. The hybridoma supernatants were tested by ELISA binding assay for anti-human CXCL13 binders. Supernatants of positive binding clones were screened for function in blocking of human CXCL13 binding to its […] CXCR5 by Cell-based receptor blocking ELISA assay. Briefly, 5×10⁴ CHO-K1-CXCR5 cells were plated in 96-well plate with 100 μl of culture medium and incubated at 37° C. overnight. Cells were fixed with 100 μl of 2% PFA at RT for 1 hr after washing with PBS for 1 time. Blocking was done with 1% BSA in PBST for 1 hr at RT. Supernatants were diluted with PBS and pre-incubated with equal volume of 0.3 μg/ml human CXCL13 for 30 min at RT. 100 μl of antibody-antigen complex was then transferred into each cell wells for 30 min at RT. The samples were washed with 1×PBST for 3 times and 100 μl of 3 μg/ml of human Mab5261 antibody was add into each well to capture human CXCL13 and anti-human Fc-HRP was used to indirectly detect human CXCL13 when it bound to CHO-K1-CXCR5 cells. […] Reading was done at […].
Those antibodies were purified from hybridoma supernatants by binding with Protein G column and characterized by ELISA binding assays and cell-based blocking ELISA assays. […] 11/20 clones bound to both human CXCL13 and cynomolgus CXCL13 appeared to completely block human CXCL13 to human CXCR5. 11 blockers bound to both huCXCL13 and cynoCXCL13 were produced as chimeric human IgG1 antibodies for further Characterization.
In general terms: ELISA stands for enzyme-linked immunosorbent assay.

Experiment [2] deals with T2, mouse CXCL13 (mouse, UniProt O55038 22-109).
T2 construct: also called rmCXCL13
T2 sequence (looked up): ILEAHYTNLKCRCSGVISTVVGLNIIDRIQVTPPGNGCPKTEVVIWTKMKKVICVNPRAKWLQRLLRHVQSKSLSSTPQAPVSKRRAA
Description: ELISA, coated antigen.

Experiment [3] concerns the target T3, cynomolgus CXCL13 (cynomolgus, UniProt H6WS58 23-109).
T3 construct: also called cynoCXCL13; Cyno CXCL13
T3 sequence: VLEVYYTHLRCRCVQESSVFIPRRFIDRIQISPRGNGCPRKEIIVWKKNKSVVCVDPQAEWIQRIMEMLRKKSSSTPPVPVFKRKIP
Description: ELISA, coated antigen.

Experiment [4] has as its target T1, human CXCL13. Description: ELISA, coated antigen.

B1: 427C4F11 (antibody, V domains shown)
VH: QVTLKESGPGILQPSQTLSLTCTFSGFSLTTYGMGVGWIRQPSGKGLEWLANIWWDDDKYSNPSLQSRLTISKDTSNNQAFLTITNVDTADTATYYCARSELVMPYVPFDYWGQGVRVTVSS
VL: DIQMTQSPSSMSASLGDRVTITCQASQDIDNHLIWFQQKPGRSPRPMIYYATNLANGVPSRFSGSRSGSDYSLTISSLESEDMADYHCLQFKQYPFTFGSGTKLEIK
notes: Hybridoma mAb
Turning to B1, in experiment [1], half-maximal inhibition (IC50) required 7.92 µg/mL. Also, the values for the EC50 in experiment [2] and in experiment [4] were 0.202 µg/mL and 1.33 µg/mL, respectively. In addition, the binding result in experiment [3] is listed as “no binding”.

B2: 432C12E1 (antibody, V domains shown)
VH: QVTLKESGPGILQPSQTLSLTCTFSGFSLSTYGMGVGWIRQPSGKGLEWLANIWWDDDKYYNPSLKNRLTISKDTSNNQAFLKITNVDTADTATYYCARSEIVMPYVPFDYWGQGVMVTVSS
VL: DIQMTQSPSSMSASLGDRVTITCQASQDIGNDLIWFQQKPGKSPRPMIYYATNLANGVPSRFSGSGSGSVYSLTISSLESEDMADYHCLQFKQYPFTFGSGTKLEIK
notes: Hybridoma mAb
Molecule B2 returned an IC50 in experiment [1] of 12.7 µg/mL. The EC50 in experiment [2] worked out at 0.744 µg/mL; in experiment [4], 5.1 µg/mL. Further, in experiment [3], the binding result was “no binding”.

B3: 339A9E7 (antibody, V domains shown)
VH: DVQLQESGPGLVKPSQSLSLTCTVTGYSITSDYAWNWNRQFPGNKLEWMGYISYSGDTSYNPSLRSRISITRDTSKNQFFLQLNSVTAEDTAKYYCVAGHFDYWGQGTTLTVSS
VL: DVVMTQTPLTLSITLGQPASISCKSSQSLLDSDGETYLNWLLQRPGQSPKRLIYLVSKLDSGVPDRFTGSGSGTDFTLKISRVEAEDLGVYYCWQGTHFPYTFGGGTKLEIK
notes: Hybridoma mAb
In experiment [1], B3 returned an IC50 of 13.3 µg/mL. In addition, the binding result in experiment [2] is “no binding”. The values for the EC50 in experiment [3] and in experiment [4] were 0.0245 µg/mL and 0.0216 µg/mL, respectively.

B4: 64C10G1 (antibody, V domains shown)
VH: EVQLVESGGGLVKPGGSLKLSCAASGFTFSSYAMSWVRQTPEKRLEWVATISDGGSDAYYPDNVKGRFTISRDNAKNNLYLQMSHLKSEDTAMYYCARDYYGSGYEDSPMDYWGQGTSVTVSS
VL: DIQMTQSPSSLSASLGGKVTITCKASQDINKYIAWYQHKPGKGPRLLIHYTSTLQPGIPSRFSGSGSGRDYSFSISNLEPEDFATYYCLQYDNLYTFGGGTKLEIK
notes: Hybridoma mAb
With B4, half-maximal inhibition in experiment [1] (IC50) was put at 0.33 µg/mL. Further, the binding result in experiment [2] is given as “no binding”. Also, the half-maximal effective concentration (EC50) in experiment [3] amounted to 0.347 µg/mL; in experiment [4], 0.0314 µg/mL.

B5: 408E3F3 (antibody, V domains shown)
VH: HVTLRESGPGVLQPSKTLSLTCSFSGFSLSTSAMVVSWIRQSSGMSLEWLAAIDWEGDKYYNPSLESRLTVSRDISDTQVFLRITSVDVADTATYYCAVMSSADSHSVLDAWGQGVSVTVSS
VL: DIKMTQSPSFLSASVGDRVTINCKASQNIHNYLNWYQQKFGEAPRLLIYNTNNLQTGIPSRFSGSGSGTDFTLTISSLQPEDVATYFCLQHSSSLTFGSGTKLEIN
notes: Hybridoma mAb
The molecule B5 had an IC50 in experiment [1] of 1.49 µg/mL. The binding result in experiment [2] is reported as “no binding”. Further, the figures for the EC50 in experiment [3] and in experiment [4] were 0.0706 µg/mL and 0.0237 µg/mL, respectively.

B6: 19H7E10 (antibody, V domains shown)
VH: EVQLQQSGPELVKPGASVKISCQASGYAFSDYYMNWVKQSHGKRLEWIGDINPNNDGTTYNQKFKDKATLTVDKSSSTAYMDLRSLTSEDSAVYYCARLSWSFFAMDYWGQGTSVTVSS
VL: DIVMTQSHKFMSTSVGDRVSITCKASQDVSSGVAWYQQKPGQSPKVLIYSASHRHTGVPDRFTASGSGTDFTFTISSVQAEDLAVYYCQQYYNTPWTFGGGTKLEIK
notes: Hybridoma mAb
Molecule B6 displayed an IC50 in experiment [1] of 2.22 µg/mL. Besides, the binding result in experiment [2] is recorded as “no binding”. The results for the EC50 in experiment [3] and in experiment [4] were 0.196 µg/mL and 0.0385 µg/mL, respectively.

B7: 411A11E9 (antibody, V domains shown)
VH: EVQLVESGGGLVQPGGSLKLSCVVSGFTFSDYYMAWVRQTPTKGLEWVASINYDGGDTYYRDSVKGRFTVSRNNAKSSLFLQMDSLRSEDTATYYCKTEEDYDGSYVMDAWGQGASVIVSS
VL: DIQMTQSPSFLSASVGDRVTISCKASQNINKELTWYQQKLGKAPKRLIYNTNILQTGIPSRFSGSGSNTDYTLTISSLQPEDFATYFCLQQSSLYTFGAGTKLELK
notes: Hybridoma mAb
For B7, the IC50 in experiment [1] was 0.793 µg/mL. Further, the binding result in experiment [2] was “no binding”. Also, the EC50 stood at 0.252 µg/mL in experiment [3] and 0.0201 µg/mL in experiment [4].

B8: 537C8D7 (antibody, V domains shown)
VH: EVQLVESGGGLVLPGRSLKLSCAASGFTFSDYAMAWVRQAPKKGLEWVATVFYDGSDTFYRDSVKGRFTISRDNAKSTLYLQMDSLRSEDTATYYCAREGDYYSRHVYVGYNWFPHWGQGTLVTVSS
VL: DIRMTQSPASLSASLGETVNIECLTSEDINSELAWYQQKPGKFPQFLIYNANSLQDGVPSRFSGSGSGTQYSLKINSLQSEDVATYFCQQYNSYPLTFGSGTELEIK
notes: Hybridoma mAb
In experiment [1], B8 yielded a concentration for half-maximal inhibition (IC50) of 2.46 µg/mL. Moreover, the EC50 in experiment [2] is 0.0375 µg/mL; in experiment [4], 0.0128 µg/mL. Further, the binding result in experiment [3] is “no binding”.

B9: 119H10D6 (antibody, V domains shown)
VH: QVQLQQSGAELMKPGASVKISCKATGYTFNTYWIEWVKQRPGHGLEWIGEILPGSESTDYNEKFKDKATFTADISSNTAYMQLSSLTSEDSAVYYCARDYYGYYFDYWGQGTTLTVSS
VL: DIVMTQSHKFMSTSVGDRVSITCKASQDVSTAVVWYQQKPGQSPKLLIYSASYRYTGVPDRFSGSGSGTDFTFTISSVQAEDLAVYYCQQHYSSPRTFGGGTKLEIK
notes: Hybridoma mAb
Molecule B9 returned an IC50 in experiment [1] of 0.533 µg/mL. Moreover, the binding result in experiment [2] and in experiment [3] was “no binding” throughout. The response in experiment [4] was half-maximal at 0.0393 µg/mL (EC50).

B10: 130D6G1 (antibody, V domains shown)
VH: QVQLQQSGAELMKPGASVKISCKSTGYTFSTYWIEWVKQRPGHGLEWIGEILPGSDSTNSNEKFEGKATFTADTSSNTAYMQLSSLTSEDSAVYYCARDYYGFYFDYWGQGTTLTVSS
VL: DIVMTQSHKFMSTSVGDRVNITCKASQDVSTAVAWYQQKPGQSPKLLIYSTSYRYTGVPDRFTGSGSGTDFTFTISNVQAEDLAVYYCQQHYTTPRTFGGGTKLEIK
notes: Hybridoma mAb
B10 came in with an IC50 in experiment [1] of 1.23 µg/mL. Further, the binding result in experiment [2] and in experiment [3] was “no binding” in each case. In experiment [4], this molecule showed an EC50 of 0.0192 µg/mL.

B11: 415A3D1F4 (antibody, V domains shown)
VH: EVKLLESGGGLVQAGGSMRLSCGAFGFTVTDFYINWIRQPAGKAPEWLGFMRNKANGYTTEYNPSVKGRFTISRNNTQNMPYLQMNTLRTEDTAIYYCARSRYNADDYYVGVMDVWGQGASVTVSS
VL: DIQMTQFPASLSASLGETVSIECLASEDIYNNLAWYQQKPGKSPQLLIYYTNSLQDGVPSRFSGTGSGTQYSLKINSLESEDAATYFCLQDSEYPWTFGGGTKLKLK
notes: Hybridoma mAb
In experiment [1], B11 displayed an IC50 of 0.698 µg/mL. Also, the binding result in experiment [2] is listed as “no binding”. Besides, the figures for the EC50 in experiment [3] and in experiment [4] were 0.0711 µg/mL and 0.0132 µg/mL, respectively.

B12: 21H12D9 (antibody, V domains shown)
VH: EVQLQQSGPVLVRPGASVKMSCKASGYTFTDYYMNWVKQSHGKSLEWIGVINPNNGGTTYKEKFKGKATLTVDKSSGTAYMELNSLTSEDSAVYYCARDDYDAGYWGQGTTLTVSS
VL: DIVMTQFQKFMSTTVGDRVSITCKASQNVDTAVAWYQHKPGQSPKLLIYSASHRYTGVPDRFTGSGSGTDFTLTISNVQSEDLADYFCQQYTDFPLTFGAGTKLELK
notes: Hybridoma mAb
For B12, in experiment [1], half-maximal inhibition (IC50) required 1.27 µg/mL. For the same molecule, in experiment [2], the binding result was “no binding”. Besides, the EC50 in experiment [3] came to 0.0619 µg/mL; in experiment [4], 0.0156 µg/mL.

B13: 418D3H6 (antibody, V domains shown)
VH: QVTLKESGPGILQPSQTLSLTCTFSGFSLSTYGMGVGWIRQPSGKGLEWLANIWWDDDKYYNPSLINRLTISKNTSNNQAFLKITNVDAPDTATYYCARSELVMPYVPFDFWGQGIMVTVSS
VL: DIQMTQSPSSLSASLGDRITMTCQASQDIGIELIWFQQKPGKSPWPVIYYTANLASGVPSRFSGSRSGSHYSLTISSLESEDMADYHCLQYKQYPFTFGSGTKLEIK
notes: Hybridoma mAb
As to B13, the IC50 in experiment [1] was 23.3 µg/mL. Further, the EC50 in experiment [2] was 7.49 µg/mL; in experiment [4], 48.7 µg/mL. Also, in experiment [3], the binding result is on record as “no binding”.

B14: 442C9H4 (antibody, V domains shown)
VH: QVTLKESGPGILQPSQTLSLTCSFSGFSLSTYGMGVGWIRQPSGKGLEWLANIWWDDDKYYNPSLINRLTISKNTSNNQAFLKITNVDAPDTATYYCARSELVMPYVPFDFWGQGIMVTVSS
VL: DIQMTQSPSSLSASLGDRITITCQASQDIGIDLIWFQQKPGKSPWPVIYYTANLASGVPSRFSGSRSGSHYSLTISSLESEDMADYHCLQYKQYPFTFGSGTKLEIK
notes: Hybridoma mAb
Regarding B14, the IC50 in experiment [1] amounted to 18.2 µg/mL. Further, the EC50 in experiment [2] is 2.96 µg/mL; in experiment [4] it was 9.85 µg/mL. The binding result in experiment [3] was “no binding”.

As a reminder, the IC50 is the concentration that inhibits the measured activity by half. Read a high IC50 as lower potency. Usually EC50 stands for the concentration at which the effect is half-maximal. A higher EC50 goes with lower potency in that assay.
